Reference: publication PMC10868123

Molecular target: VPS13C, endogenous in HEK-293 cells [human (endogenous in HEK-293 FT/HEK-293 T)]
Assay: co-IP (anti-GFP IP, immunoblot quantification)
Conditions: N = 4; parent: 1; read off a plot

Row | Substance | ratio to parent
1 | eGFP-Rab10 WT mutant T73A [not stated] / VPS13C, endogenous in HEK-293 cells [human (endogenous in HEK-293 FT/HEK-293 T)] chain 1 T73A | 0.34
2 | eGFP-Rab10 WT mutant T73E [not stated] / VPS13C, endogenous in HEK-293 cells [human (endogenous in HEK-293 FT/HEK-293 T)] chain 1 T73E | 1.3
